16 molecules from US20250368744A1 (CONCEPT TO MEDICINE BIOTECH, published 2025) can be followed below.

T1: human CCR4 (human, UniProt P51679 1-360)
T1 construct: whole, on cells; also called hCCR4
T1 sequence (looked up): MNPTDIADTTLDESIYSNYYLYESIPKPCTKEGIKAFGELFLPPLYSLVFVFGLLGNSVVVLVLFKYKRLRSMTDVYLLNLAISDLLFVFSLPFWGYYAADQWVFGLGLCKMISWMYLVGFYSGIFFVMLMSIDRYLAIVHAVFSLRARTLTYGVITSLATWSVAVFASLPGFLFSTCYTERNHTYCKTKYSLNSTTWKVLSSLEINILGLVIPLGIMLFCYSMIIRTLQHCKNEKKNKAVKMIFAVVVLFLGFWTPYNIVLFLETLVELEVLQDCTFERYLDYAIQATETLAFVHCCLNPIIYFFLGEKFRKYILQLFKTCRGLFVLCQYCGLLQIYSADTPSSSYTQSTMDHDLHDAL

B1: 115C5E3B8 (antibody, V domains shown)
VH: DVQLQESGPGLVKPSQSLSLTCSVTGYSITSGYYWNWIRQFPGNKLEWMGYISYDGYNDYNPSLKNRISITRDTSKNQFFLKLNSVTTEDTATYYCARETGLRKAWFAYWGQGTLVTVSG
VL: DIQMTQSSSYLSVSLGGRVTITCKASDHINNRLAWYQQKPGNAPRLLISDTSSLETGVPSRFSGSGSGKDYTLRITSLQTEDVATYYCQQYWGTPYTFGGGTKLEIK
notes: tested as chimeric mAb
B2: Hu195H8D10-1 (antibody, V domains shown)
VH: EVQLVESGGGLVQPGGSLRLSCAASGFNFNTYVMNWVRQAPGKGLEWVGRIRTKSNNYATYYADSVKDRFTISRDDSKNSLYLQMNSLKTEDTAVYYCARGTITRLGGGLDYWGQGTLVTVSS
VL: DIVMTQSPLSLPVTPGEPASISCRSSKRLLHSNGNTYLYWYLQKPGQSPQLLIYRMSNLASGVPDRFSGSGSGTDFTLKISRVEAEDVGVYYCMQHLEYPFTFGGGTKLEIK
notes: humanized
B3: Hu200C9B9-15 (antibody, V domains shown)
VH: EVQLVESGGGLVQPGGSLRLSCAASGFSFNTYVMNWVRQAPGKGLNWVARIRTKSNNYATFYVDSVKDRFTISRDDSENSLYLQMNSLKTEDTAVYYCVSGTITRLGAGLDYWGQGTLVTVSS
VL: DIVMTQSPLSLPVTPGEPASISCRSSKSLLHSNGNTYLYWYLQKPGQSPQLLIYRMSNLASGVPDRFSGSGSGTAFTLKISRVEAEDVGVYYCMQHLEYPFTFGGGTKLEIK
notes: humanized
B4: Hu195H8D10-9 (antibody, V domains shown)
VH: EVQLVESGGGLVQPGGSLRLSCAASGFNFNTYVMNWVRQAPGKGLEWVARIRTKSNNYATYYADSVKDRFTISRDDSKSSLYLQMNSLKTEDTAVYYCVSGTITRLGGGLDYWGQGTLVTVSS
VL: DIVMTQSPLSLPVTPGEPASISCRSSKRLLHSNGNTYLYWYLQKPGQSPQLLIYRMSNLASGVPDRFSGSGSGTDFTLKISRVEAEDVGVYYCMQHLEYPFTFGGGTKLEIK
notes: humanized
B5: Hu200C9B9-5 (antibody, V domains shown)
VH: EVQLVESGGGLVQPGGSLRLSCAASGFSFNTYVMNWVRQAPGKGLEWVARIRTKSNNYATFYVDSVKDRFTISRDDSKNSLYLQMNSLKTEDTAVYYCVSGTITRLGAGLDYWGQGTLVTVSS
VL: DIVMTQSPLSLPVTPGEPASISCRSSKSLLHSNGNTYLYWYLQKPGQSPQLLIYRMSNLASGVPDRFSGSGSGTDFTLKISRVEAEDVGVYYCMQHLEYPFTFGGGTKLEIK
notes: humanized
B6: Hu195H8D10-2 (antibody, V domains shown)
VH: EVQLVESGGGLVQPGGSLRLSCAASGFNFNTYVMNWVRQAPGKGLEWVGRIRTKSNNYATYYADSVKDRFTISRDDSKNSLYLQMNSLKTEDTAVYYCARGTITRLGGGLDYWGQGTLVTVSS
VL: DIVMTQSPLSLPVTPGEPASISCRSSKRLLHSNGNTYLYWFLQKPGQSPQLLIYRMSNLASGVPDRFSGSGSGTDFTLKISRVEAEDVGVYYCMQHLEYPFTFGGGTKLEIK
notes: humanized
B7: Hu195H8D10-12 (antibody, V domains shown)
VH: EVQLVESGGGLVQPGGSLRLSCAASGFNFNTYVMNWVRQAPGKGLEWVARIRTKSNNYATYYADSVKDRFTISRDDSKSSLYLQMNSLKTEDTAVYYCVSGTITRLGGGLDYWGQGTLVTVSS
VL: DIVMTQSPLSLPVTPGEPASISCRSSKRLLHSNGNTYLYWFLQKPGQSPQLLIYRMSNLASGVPDRFSGSGSGTAFTLKISRVEAEDVGVYYCMQHLEYPFTFGGGTKLEIK
notes: humanized
B8: Hu200C9B9-12 (antibody, V domains shown)
VH: EVQLVESGGGLVQPGGSLRLSCAASGFSFNTYVMNWVRQAPGKGLNWVARIRTKSNNYATFYVDSVKDRFTISRDDSKNSLYLQMNSLKTEDTAVYYCVSGTITRLGAGLDYWGQGTLVTVSS
VL: DIVMTQSPLSLPVTPGEPASISCRSSKSLLHSNGNTYLYWFLQKPGQSPQLLIYRMSNLASGVPDRFSGSGSGTAFTLKISRVEAEDVGVYYCMQHLEYPFTFGGGTKLEIK
notes: humanized
B9: Hu200C9B9-1 (antibody, V domains shown)
VH: EVQLVESGGGLVQPGGSLRLSCAASGFSFNTYVMNWVRQAPGKGLEWVGRIRTKSNNYATFYVDSVKDRFTISRDDSKNSLYLQMNSLKTEDTAVYYCARGTITRLGAGLDYWGQGTLVTVSS
VL: DIVMTQSPLSLPVTPGEPASISCRSSKSLLHSNGNTYLYWYLQKPGQSPQLLIYRMSNLASGVPDRFSGSGSGTDFTLKISRVEAEDVGVYYCMQHLEYPFTFGGGTKLEIK
notes: humanized
B10: Hu195H8D10-13 (antibody, V domains shown)
VH: EVQLVESGGGLVQPGGSLRLSCAASGFNFNTYVMNWVRQAPGKGLEWVARIRTKSNNYATYYADSVKDRFTISRDDSESSLYLQMNSLKTEDTAMYYCVSGTITRLGGGLDYWGQGTLVTVSS
VL: DIVMTQSPLSLPVTPGEPASISCRSSKRLLHSNGNTYLYWYLQKPGQSPQLLIYRMSNLASGVPDRFSGSGSGTDFTLKISRVEAEDVGVYYCMQHLEYPFTFGGGTKLEIK
notes: humanized
B11: Hu200C9B9-11 (antibody, V domains shown)
VH: EVQLVESGGGLVQPGGSLRLSCAASGFSFNTYVMNWVRQAPGKGLNWVARIRTKSNNYATFYVDSVKDRFTISRDDSKNSLYLQMNSLKTEDTAVYYCVSGTITRLGAGLDYWGQGTLVTVSS
VL: DIVMTQSPLSLPVTPGEPASISCRSSKSLLHSNGNTYLYWYLQKPGQSPQLLIYRMSNLASGVPDRFSGSGSGTAFTLKISRVEAEDVGVYYCMQHLEYPFTFGGGTKLEIK
notes: humanized
B12: Hu200C9B9-2 (antibody, V domains shown)
VH: EVQLVESGGGLVQPGGSLRLSCAASGFSFNTYVMNWVRQAPGKGLEWVGRIRTKSNNYATFYVDSVKDRFTISRDDSKNSLYLQMNSLKTEDTAVYYCARGTITRLGAGLDYWGQGTLVTVSS
VL: DIVMTQSPLSLPVTPGEPASISCRSSKSLLHSNGNTYLYWFLQKPGQSPQLLIYRMSNLASGVPDRFSGSGSGTDFTLKISRVEAEDVGVYYCMQHLEYPFTFGGGTKLEIK
notes: humanized
B13: Hu195H8D10-14 (antibody, V domains shown)
VH: EVQLVESGGGLVQPGGSLRLSCAASGFNFNTYVMNWVRQAPGKGLEWVARIRTKSNNYATYYADSVKDRFTISRDDSESSLYLQMNSLKTEDTAMYYCVSGTITRLGGGLDYWGQGTLVTVSS
VL: DIVMTQSPLSLPVTPGEPASISCRSSKRLLHSNGNTYLYWFLQKPGQSPQLLIYRMSNLASGVPDRFSGSGSGTDFTLKISRVEAEDVGVYYCMQHLEYPFTFGGGTKLEIK
notes: humanized
B14: Hu200C9B9-10 (antibody, V domains shown)
VH: EVQLVESGGGLVQPGGSLRLSCAASGFSFNTYVMNWVRQAPGKGLNWVARIRTKSNNYATFYVDSVKDRFTISRDDSKNSLYLQMNSLKTEDTAVYYCVSGTITRLGAGLDYWGQGTLVTVSS
VL: DIVMTQSPLSLPVTPGEPASISCRSSKSLLHSNGNTYLYWFLQKPGQSPQLLIYRMSNLASGVPDRFSGSGSGTDFTLKISRVEAEDVGVYYCMQHLEYPFTFGGGTKLEIK
notes: humanized
B15: Hu200C9B9-14 (antibody, V domains shown)
VH: EVQLVESGGGLVQPGGSLRLSCAASGFSFNTYVMNWVRQAPGKGLNWVARIRTKSNNYATFYVDSVKDRFTISRDDSENSLYLQMNSLKTEDTAVYYCVSGTITRLGAGLDYWGQGTLVTVSS
VL: DIVMTQSPLSLPVTPGEPASISCRSSKSLLHSNGNTYLYWFLQKPGQSPQLLIYRMSNLASGVPDRFSGSGSGTDFTLKISRVEAEDVGVYYCMQHLEYPFTFGGGTKLEIK
notes: humanized
B16: Hu200C9B9-8 (antibody, V domains shown)
VH: EVQLVESGGGLVQPGGSLRLSCAASGFSFNTYVMNWVRQAPGKGLEWVARIRTKSNNYATFYVDSVKDRFTISRDDSKNSLYLQMNSLKTEDTAVYYCVSGTITRLGAGLDYWGQGTLVTVSS
VL: DIVMTQSPLSLPVTPGEPASISCRSSKSLLHSNGNTYLYWFLQKPGQSPQLLIYRMSNLASGVPDRFSGSGSGTAFTLKISRVEAEDVGVYYCMQHLEYPFTFGGGTKLEIK
notes: humanized

The target of the first test is T1, human CCR4. Description: FACS, CHO-K1 hCCR4 cells. How it is done: (§1) Briefly, HEK293 hCCR8 cell line, CHO-K1 cyno CCR8 cell line or CHO-K1 hCCR4 cell line was first incubated with 5-fold serially diluted and 8 doses with the above 10 chimeric Abs and hlgG1 control starting from 100 nM at 4° C. for 30 mins. After washing by FACS buffer, PE Goat anti-Human IgG Fc Secondary Antibody (eBioscience™, Invitrogen) was added to each well and incubated at 4° C. for 30 mins. Samples were washed twice with FACS buffer. The mean florescence intensity (MFI) of PE was evaluated by MACSQuant Analyzer 16.
With B1, the binding result is reported as “no binding (tested: 100 nM (highest concentration tested))”.

For another test, the target named is T2, human C-C motif chemokine receptor 8 (CCR8) (human, UniProt P51685 1-355). The test can be described thus: cell-based or functional assay.
T2 sequence (P51685 whole entry): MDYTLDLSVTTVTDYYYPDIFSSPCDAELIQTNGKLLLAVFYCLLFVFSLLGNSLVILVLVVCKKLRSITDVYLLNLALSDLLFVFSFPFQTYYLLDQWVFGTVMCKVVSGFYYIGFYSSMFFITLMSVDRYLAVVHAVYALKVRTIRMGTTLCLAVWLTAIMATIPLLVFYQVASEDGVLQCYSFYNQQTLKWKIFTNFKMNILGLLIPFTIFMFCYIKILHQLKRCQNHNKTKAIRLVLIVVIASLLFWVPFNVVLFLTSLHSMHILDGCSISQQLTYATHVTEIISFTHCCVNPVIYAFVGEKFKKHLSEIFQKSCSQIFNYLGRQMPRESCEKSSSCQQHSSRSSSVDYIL
Take B1: the “IC50, hCCL1-induced beta-arrestin recruitment (RLU), CHO-K1 hCCR8 cells” value came to 2.28 nM.

In another test the target is T2, human C-C motif chemokine receptor 8 …. The test can be described thus: cell-based or functional assay. The source holds these as a separate data set.
Take B1: the “IC50, hCCL1-induced Ca2+ flux (stimulation %), Chem-1 hCCR8 cells [upper graph]” value is 17.8 nM.

The target is the same in a further test. Description: FACS (MFI-PE) on HEK293 hCCR8 cells. How it is done: as §1
One may read the EC50 as the concentration that produces a half-maximal response. Read a high EC50 as a need for much substance. For the molecule B1, the EC50 amounted to 0.126 nM.

A further test has the same target. The test can be described thus: FACS (MFI-PE) on CHO-K1 hCCR8 cells, bars at five doses. The protocol: PE Goat anti-Human IgG Fc Secondary Antibody (eBioscience™, Invitrogen) was added to each well and incubated at 4° C. for 30 mins. Samples were washed twice with FACS buffer. The mean florescence intensity (MFI) of PE was evaluated by MACSQuant Analyzer 16.
With B2, the binding result is reported as “binds”.
The same measure, in the same setting: as for B3, the entry is “binds”.
In the case of B4, the binding result is recorded as “binds”.
Turning to B5, the binding result is “binds”.
Consider B6, for which the binding result is recorded as “binds”.
On the same count and under the same terms, then B7, with “binds”.
For B8, the binding result was “binds”.
For B9, the binding result was “binds”.
As for B10, the binding result is “binds”.
As to B11, the binding result is reported as “binds”.
For B12, the binding result was “binds”.
In the case of B13, the binding result is reported as “binds”.
Regarding B14, the binding result was “binds”.
For the molecule B15, the binding result is “binds”.
Consider B16, for which the binding result is “binds”.
